Each block holds one binder with its values, some of them ahead of it.
Experiments:
[1] = target: T1, Human IL-2 (Humanzyme, HumanKine IL-2) (human, UniProt P60568 21-153); test: SPR (Biacore T200), antibody captured, human IL-2 injected
T1 construct: Bought; also called hIL-2

[2] = target: T2, mouse IL-2 (Peprotech #212-12) (mouse, UniProt P04351 21-169); test: told in Example 10; method not named there (SPR in Example 4)
T2 construct: Bought
T2 sequence (looked up): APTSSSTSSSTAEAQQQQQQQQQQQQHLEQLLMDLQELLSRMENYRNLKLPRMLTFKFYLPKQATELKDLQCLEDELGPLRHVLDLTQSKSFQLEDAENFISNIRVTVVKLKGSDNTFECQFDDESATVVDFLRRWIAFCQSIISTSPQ

T1 sequence (P60568 21-153 limits assumed): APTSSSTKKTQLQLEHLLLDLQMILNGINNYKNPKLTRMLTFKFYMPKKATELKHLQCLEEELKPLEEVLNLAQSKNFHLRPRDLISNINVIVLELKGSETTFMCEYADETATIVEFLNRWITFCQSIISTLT

binding result [1]: binds | binding result [2]: binds
B1: 16B2 (antibody, IgG1, V domains shown)
VH: QVQLVQSGAEVKKPGASVKVSCKASGYTFTSYGISWVRQAPGQGLEWMGWISAYNGNTNYAQKLQGRVTMTTDTSTSTAYMELRSLRSDDTAVYYCAREGAIYYDSSGYYFPFDYWGQGTLVTVSS
VL: SYELTQPPSVSVSPGQTARITCSGDALPRKFAYWYQQKSGQAPVMVIYGDSKRPPGIPERFSGSSSGTMATLTITGAQVEDEADYYCYSTDSGGDVSVFGGGTKLTVL
notes: also called mAb 16B2

binding result [1]: binds | binding result [2]: binds
B2: 24E7 (antibody, IgG1, V domains shown)
VH: QVQLVQSGAEVKKPGESLKISCKGSGYSFTSYWIGWVRQMPGKGLEWMGIIYPGDSDTRYSPSFQGQVTISADKSISTAYLQWSSLKASDTAMYYCARETLAAVGSNYYYYGMDVWGQGTTVTVSS
VL: SYELTQPPSVSVSPGQTARITCSGDALPRKYAYWYQQKSGQAPVLVIYEDSKRPSGIPERFSGSSSGTMATLTISGAQVEDEADYYCYSTDRSGNFWVFGGGTKVTVL
notes: also called mAb 24E7
